Test results taken from patent US20180044653A1, “Mutant Yeast Strain Capable of Degrading Cellobiose” (Institut National de la Recherche Agronomique, priority 2015, published 2018).

Key:
[1] = test system: S. fibuligera β-glucosidase Bgl1; details: Yan and Lin, 1997; cited from earlier work
A. niger β-glucosidase = details: Yan and Lin, 1997; cited from earlier work
[2] = β-Glucosidase activity, release of pNP from pNPGlc; type: biochemical; details: for activity on pNPGlc of purified enzyme: preliminary characterization, pNPGlc as substrate; for Specific activity: pNPGlc
Description: β-Glucosidase activity was measured by quantifying the release of pNP (p-nitroplienol) from pNPGlc as described previously (Guo et al., 2011). One unit of pNPGlcase activity was defined as the amount of enzyme required to release 1 μmol pNP per min. Cellobiose phosphorylase activity was assayed by measuring the formation of Glc-1P from cellobiose as described previously (Reichenbecher et al., 1997). One unit of activity (U) was defined as the amount of enzyme required to release 1 μmol Glc-1P per min. All protein concentrations were measured using the Bradford method and bovine serum albumin as a standard (Bradford, 1976).

[3] = Subcellular fractionation and enzyme localization, activity assayed with pNPGlc; type: biochemical, Y. lipolytica; details: for Relative enzyme activity, Cytoplasm: fraction: Cytoplasm; for Relative enzyme activity, Growth medium: fraction: Growth medium; for Relative enzyme activity, Membrane: fraction: Membrane; for Relative enzyme activity, Periplasm: fraction: Periplasm; for Relative enzyme activity, Total: fraction: Total
Description: Fractionation of yeast cells was carried out as described by Cummings and Fowler (1996), with slight modifications. Briefly, yeasts were cultivated until a cellular density of 6×10^7 cells/mL was reached. Then, to quantify total β-glucosidase activity, a 50 mL sample was taken and subjected to centrifugation at 8,000×g for 5 min at 4° C. thus isolating a cell pellet and supernatant. The cell pellet was disrupted in Tris-HCl buffer (50 mM, pH 7.4, 3 mM EDTA and 0.5 mM PMSF) using a MP FastPrep-24 Instrument (MP Biomedicals Inc.). β-Glucosidase activity in both the cell lysate and the supernatant was determined as described earlier in order to estimate total β-glucosidase activity. Using a second 50 mL yeast culture, a cell pellet containing approximately 2×10^8 cells/mL was obtained by centrifugation and then treated with zymolyase 100T at 10 mg/mL (Seikagaku corp roger) in 15 mL of sorbitol buffer (1 M sorbitol, 50 mM Tris-HCl, pH 7.4, 2 mM dithiothreitol, 10 mM MgCl2, 20 mM-sodium azide, 0.5 mM PMSF) at 30° C. with gentle shaking. Protoplast formation was monitored using a microscope until ≧99% of the cells was lysed when. SDS was added (1% SDS w/v). The solid protoplast fraction was then separated from the supernatant by centrifugation (1000 rpm for 5 min at 4° C.) and the latter was designated as the periplasmic fraction. The protoplasts were re-suspended in Tris-HCl buffer (50 mM Tris-HCl, pH 7.4) and disrupted by vortex in the presence of glass beads (0.4-0.45 mm). The homogenate was centrifuged (20,000×g for 2 h at 4° C.) and the supernatant and solid fractions were designated as the cytoplasmic and membrane fraction respectively. Prior to enzyme assays, the membrane fraction was suspended in citrate buffer.
Activity was assayed with pNPGlc.

[4] = Specific activity on cellobiose; type: biochemical
From the text: (§1) When using aryl-substrates, the standard assay method was employed, simply replacing pNPGlc by another substrate as appropriate. For oligosaccharides, the release of glucose was quantified using an enzyme kit (D-Fructose/D-Glucose Assay Kit, liquid stable, Megazyme).

[5] = Michaelis-Menten kinetics (glucose release); type: biochemical; details: cellobiose
From the text: as §1

[6] = Optimal temperature and pH for activity; type: biochemical; details: pNPGlc
Description: (§2) Optimal temperatures and pH for the activity of Bgl1-His6 and Bgl2 were determined using pNPGlc as the substrate. Assays were either performed at pH 5.0 and various temperatures (30-70° C.), or at 30° C. in variable pH conditions (2.0 to 8.0) using either 50 mM glycine-HCl (pH 2.0), 50 mM citrate/acetate (pH 3.0-7.2), or potassium phosphate (pH 7.0-8.2) buffer. When the temperature was varied, the pH of the citrate buffer was adjusted accordingly. Stability of Bgl1-His6 and Bgl2 depending on pH and temperature was analysed as follows: enzymes were incubated at 30° C. for up to 2 h at various pH values (2.0 to 8.0), or at various temperatures (30-70° C.) for up to 2 h in 50 mM citrate buffer, pH 5.0. Residual glucosidase activity was then assayed at 30° C. in 50 mM citrate buffer, pH 5.0.

[7] = Stability depending on pH and temperature (residual glucosidase activity); type: physicochemical
Description: as §2

[8] = Substrate specificity, aryl-glycoside; type: biochemical
From the text: as §1

OC[C@H]1O[C@@H](O[C@H]2[C@H](O)[C@@H](O)C(O)O[C@@H]2CO)[C@H](O)[C@@H](O)[C@@H]1O (stereo partly drawn) [Cellobiose]
Km [1]: 2800 µM | Km (A. niger β-glucosidase): 2700 µM

B1: Bgl1: β-glucosidase of Y. lipolytica encoded by BGL1 (YALI0F16027g), SEQ ID NO: 4, mainly periplasmic (protein, listed as Yarrowia lipolytica)
chain: MIFSLQLLLTTALAASSPDWYPTPEIGSITSDWADALGESMDILAQLTLPEKVNITTGTGWRGGQCVGNTGAVPRLGIKGLCLQDGPLGVRFADFVNVFPCQNAMAATFDRILVHQRGTAIGRQSRLKGVDVHLGPVVGPLGRHATGGRNWEGFSPDPYLSGKLAFEAILGVQEEGVLATIKHFIGNEQEHYRRAEEWRDGFGFKDLKDAVSSNIEDRALHELYMWPFADAVRANVGSVMCSYNYVNGTQACQNSDLLNGKLKSELGFQGFVMSDWFAQGSGVSNALAGMDMSMPGNDVDELETVFWGEQLTRMVANGTLPEARLDDMVLRILTPLIYFGIDDRTPNFSSFVDTTVGSPHPAAKHSKKVKDVITNYHLDVRDQFAANVALDSARGAVVLLFNDGILPLKNISAIGVFGVGSRLGPNGAVCGENMQCSDGALIEGWGSGTAYPTEYESPYEALHKKASLLEVSVTGTTESWDMRLPLELAGDTDVNIVYVLANSGESTANVDKNLGDRRNVSLWHNGDELINTVASQGQTVVVVTTVGQVDMTAWLNHPNISAVLLTAPAGDYGGKAIADVLFGEVNPSGKLPYTIAANTSDYIPIVTKIPRDGAPQSDFVEGIYLDYKWYDKFERTPLYEFGYGLSYTTYSFSNLHLDVKEISEFLPPRPVPVQVTKPKMTNIDIEDLYVPNDFKMIDGLVYPWILNASAPLADSQTQFPFANGAGHVSDASGGVGGHPWLWSNAVTVTHNTTNCGDVAGRVVSQLYVAFPETLIDSPPVQLRGFDKSKLLNPGESQMTEYNLNWRDLAIWDVELQSWRVQRGEYSVYIGHSSREFELCETFTL
fold more active on pNPGlc than Bgl2 [2]: 5 fold | activity on pNPGlc of purified enzyme [2]: 102.8 U/mg | Relative enzyme activity, Cytoplasm [3]: 30.0 ± 0.5% | Relative enzyme activity, Growth medium [3]: 2.3 ± 0.4% | Relative enzyme activity, Membrane [3]: 8.1 ± 0.7% | Relative enzyme activity, Periplasm [3]: 60.7 ± 1.0% | Relative enzyme activity, Total [3]: 100% | specific activity on cellobiose [4]: 108 units/mg protein | KM fold lower than those of β-glucosidases from S. fibuligera and A. niger [5]: approximately 10 fold

B2: Bgl2: β-glucosidase of Y. lipolytica encoded by BGL2 (YALI0B14289g), SEQ ID NO: 6, secreted to the culture medium (protein, listed as Yarrowia lipolytica)
chain: MLAFVLLLTMLLAAALADPFSDKDAYKHSPPYYPAPEIGRVPTDLRWRAALKVAQGMVANMTLLEKVNITTGTGWEMGPCVGNTGTVERLGIKSLCLQDGPLGIRFADLITTFPAGITIASTFSRQLVRERGAAMGRENRRKGVDITLSPVVGPLGRHANGGRIWEGFSADPYLAGKLAAEAVTGIQGQNVMAVVKHMVGNEQEHFRQLGEWQGFGFKDLKQPLSSNIDDRTLNEAYLWPFADAVRANVGSVMCSYQQINGSQGCQNAHILNGKLKEEMGFQGFVMSDWLAQRSGVASVLAGLDMSMPGDGLVWADGVPLMGYELTRSVLNGTIDESRVDDMVTRILTPILYLSITPTDPNFSSWTNDTTSYKYYGAKAGGNVTVNRHIDVRDQYTTKAALDGANAALVLLKNEKKTLPLNPTNIGNLNIFGIGSKTGPLGAVCGENMQCSDGALIEGWGSGSVYPTDYQSPYDAIKERASKDNITIGGTTQSWGNLSNVEILSAAADASVVFVLSDSGESTGIVDGNIGDRNNLTLWHNGDEVVKAVASKNPNTIVVVTTVGPVNLEKWIDNPNVTAVLLTGPAGDFGGRAAASILFGDIAPSGKLPFTIAKNDTDYIPLTTKIPEDGLPQDYFTEGTLLDYKRFDENQVTPRFEFGYGLSYSNITVENLEARYAFPSIPEFLPTPFAPSNPNKPKNAFTPHANESVFPSDIDPLNKYVYPYLNDTSEIFSNETHYPYPEGYSSEQSNSTNINGGAVGGNPALWLSAVYIVHSVSNYGPYDTGVVTQMYIAFPQDNDDLKTAPRQLRGFERSELKVGERQGILYDVQWRDLAVWDVKLQSWRVQRGEYKVYVGHSSRDFVLTTSFTLK
decrease in specific activity after deglycosylation ([2]; endoglycosidase H treatment, pNPG): 60% | Specific activity ([2]; purification step: Culture filtrate): 0.23 U/mg | Specific activity ([2]; purification step: Gel filtration): 25.8 U/mg | Specific activity ([2]; purification step: Ion exchange): 2.0 U/mg | Specific activity ([2]; purification step: Ultra filtration): 0.26 U/mg | activity on pNPGlc of purified enzyme [2]: 25.8 U/mg | Relative enzyme activity, Cytoplasm [3]: 4.8 ± 0.8% | Relative enzyme activity, Growth medium [3]: 79.6 ± 1.2% | Relative enzyme activity, Membrane [3]: 3.7 ± 0.3% | Relative enzyme activity, Periplasm [3]: 25.8 ± 1.0% | Relative enzyme activity, Total [3]: 100% | pH of highest activity ([6]; 30° C.): 4.0 | temperature of highest activity ([6]; pH 5.0): 50 °C | enzyme activity remained ([7]; 30° C. and 40° C. at pH 5): 100% | pH range in which enzyme is stable ([7]; 30° C., up to 2 h): 3.5-7.0 | enzyme activity remained ([7]; pH 4.0, 5.0 and 6.0 at 30° C.): 100% | temperature below which enzyme is stable ([7]; pH 5.0, up to 2 h): below 50 °C | specific activity on cellobiose [4]: 25 units/mg protein | activity on pNP-α-D-glucopyranoside [8]: Neither enzyme displayed activity | activity on pNP-β-D-galactopyranoside [8]: Neither enzyme displayed activity | activity on pNP-β-D-cellobioside relative to pNPGlc ([8]; activity on pNPGlc as benchmark): 27% | KM fold lower than those of β-glucosidases from S. fibuligera and A. niger [5]: ~4 fold
